Data: publication PMC4686657

Biological target: GST-E2f1 (UniProt Q01094)
Assay: EMSA
Conditions: increasing GST-E2f1, constant probe, EMSA: 20 mM HEPES, 10 mM KCl, 0.2 mM EDTA, 10% glycerol, 5 mM DTT (7 ul Binding Buffer D in 20 ul), 50 ng poly dI:dC, 0.15% NP-40, 1 ug BSA, 5 ug nuclear …

Sequence of UniProt Q01094 (Q01094 whole entry): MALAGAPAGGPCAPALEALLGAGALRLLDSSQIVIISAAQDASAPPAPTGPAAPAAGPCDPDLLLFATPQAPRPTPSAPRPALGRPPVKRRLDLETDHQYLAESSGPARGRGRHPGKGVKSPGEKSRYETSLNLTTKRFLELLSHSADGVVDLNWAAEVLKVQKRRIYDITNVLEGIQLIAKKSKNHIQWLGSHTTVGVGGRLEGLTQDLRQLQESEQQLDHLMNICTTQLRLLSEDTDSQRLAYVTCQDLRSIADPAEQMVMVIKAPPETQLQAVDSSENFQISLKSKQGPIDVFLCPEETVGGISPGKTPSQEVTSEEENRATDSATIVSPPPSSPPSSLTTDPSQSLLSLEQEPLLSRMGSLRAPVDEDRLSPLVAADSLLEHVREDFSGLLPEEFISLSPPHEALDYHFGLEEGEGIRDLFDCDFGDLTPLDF

Sequence	binding signal (scale: fold signal vs Pfkl probe)	binding signal (reference (Pfkl T-stretch is 1.88-fold))
CAGGCTTTTTCGGCGCGGAACGCAG (double strand) [Pfkl T-stretch probe]	1.88	
CAGGCGACAGCGGCGCGGAACGCAG (double strand) [Pfkl probe]		1
